Data from US20240109962A1 (SPARX BIOSCIENCE, published 2024).
Where two headings read alike, the source gives them in different places.

Tests used:
[1] = molecular target: T1, human LILRB2 expressed on cells (293T-LILRB2, CHO-K1-LILRB2) (human, UniProt Q8N423 22-597); assay: flow cytometry on 293T-LILRB2 cells, serial dilution, APC anti-human IgG; fit table under the graph
T1 construct: whole, on cells; the cell line is named under assay; also called HEK293T-LILRB2
Description: (§1) The cells were washed and then subject to flow cytometry to measure levels of fluorescent signals.

[2] = molecular target: T1, human LILRB2 expressed on cells …; assay: flow cytometry, blockade of His-tagged HLA-G tetramer binding to 293T-LILRB2 cells; fit table under the graph
Experimental: Serial diluted humanized LILRB2 antibodies were then added to the mixture and incubated at room temperature for another 45 minutes. The binding of HLA-G/LILRB2 was detected afterwards using a secondary PE-labeled anti-His tag antibody via flow cytometry.

[3] = molecular target: T1, human LILRB2 expressed on cells …; assay: flow cytometry on 293T-LILRB2 cells, serial dilution, APC anti-human IgG; fit table under the graph; remark: listed apart in the source
Description: as §1

[4] = molecular target: T1, human LILRB2 expressed on cells …; assay: as above; remark: listed apart in the source
Description: as §1

[5] = molecular target: LILRB2 antigen of the ELISA of Table 5 (format not specified) (UniProt Q8N423 22-460, limits assumed); assay: ELISA, antibody titration
Sequence of LILRB2 antigen of the ELISA of Table 5 (format not specified) (Q8N423 22-460 limits assumed): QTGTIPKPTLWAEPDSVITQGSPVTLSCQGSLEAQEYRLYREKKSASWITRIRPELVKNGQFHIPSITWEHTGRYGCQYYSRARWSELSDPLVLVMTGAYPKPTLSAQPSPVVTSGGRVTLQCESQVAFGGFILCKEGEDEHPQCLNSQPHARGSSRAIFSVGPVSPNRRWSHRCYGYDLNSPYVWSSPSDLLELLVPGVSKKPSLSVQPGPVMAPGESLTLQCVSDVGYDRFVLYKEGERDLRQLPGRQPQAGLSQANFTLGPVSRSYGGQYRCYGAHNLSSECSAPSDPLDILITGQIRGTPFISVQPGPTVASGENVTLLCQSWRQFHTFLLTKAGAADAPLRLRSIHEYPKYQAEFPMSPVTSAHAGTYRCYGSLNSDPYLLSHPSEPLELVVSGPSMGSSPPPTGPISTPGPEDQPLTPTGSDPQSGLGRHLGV

[6] = molecular target: T2, human LILRB1 expressed on 293T cells (human, UniProt Q8NHL6 24-650); assay: flow cytometry on 293T transfectants, MFI
T2 construct: whole, on cells
T2 sequence (Q8NHL6 24-650): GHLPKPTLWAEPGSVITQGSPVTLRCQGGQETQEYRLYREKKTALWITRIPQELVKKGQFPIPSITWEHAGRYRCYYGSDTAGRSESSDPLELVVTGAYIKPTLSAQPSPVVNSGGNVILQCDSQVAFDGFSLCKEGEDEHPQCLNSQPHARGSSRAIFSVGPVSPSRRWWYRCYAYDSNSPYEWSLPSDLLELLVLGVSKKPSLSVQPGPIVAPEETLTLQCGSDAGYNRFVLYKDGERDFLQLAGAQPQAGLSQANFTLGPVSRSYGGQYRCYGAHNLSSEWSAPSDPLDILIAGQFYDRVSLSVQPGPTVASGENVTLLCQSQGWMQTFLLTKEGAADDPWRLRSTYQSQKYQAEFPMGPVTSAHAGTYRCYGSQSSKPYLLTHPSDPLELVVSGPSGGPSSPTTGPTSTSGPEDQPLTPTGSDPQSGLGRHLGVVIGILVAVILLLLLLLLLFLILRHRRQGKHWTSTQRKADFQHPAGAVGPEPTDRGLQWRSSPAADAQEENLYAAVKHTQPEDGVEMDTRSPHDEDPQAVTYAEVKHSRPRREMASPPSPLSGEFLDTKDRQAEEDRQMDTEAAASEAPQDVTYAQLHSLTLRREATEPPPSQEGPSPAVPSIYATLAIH
Experimental: (§2) The cells were then immobilized with glutaraldehyde in the presence of 5% defatted milk at room temperature for 2 hours. An anti-LILRB2 antibody (5 μg/ml) was added to each well and incubated at room temperature for 1 hours. An Alex Flour®-labelled goat anti-mouse secondary antibody (1:2,000 dilution) was then added into each well and incubated at room temperature for 30′. The cells were washed twice with PBS after the staining. Fluorescence intensities (MFI) were measured.

[7] = molecular target: T3, human LILRB3 expressed on 293T cells (human, UniProt O75022 24-631); assay: flow cytometry on 293T transfectants, MFI
T3 construct: whole, on cells
Experimental: as §2

LILRB1-His = molecular target: T4, LILRB1-His; assay: ELISA on recombinant His-tagged protein, OD450
T4 construct: also called His-tagged LILRB1; recombinant LILRB1 protein
T4 sequence (chain, as listed by the source limits assumed): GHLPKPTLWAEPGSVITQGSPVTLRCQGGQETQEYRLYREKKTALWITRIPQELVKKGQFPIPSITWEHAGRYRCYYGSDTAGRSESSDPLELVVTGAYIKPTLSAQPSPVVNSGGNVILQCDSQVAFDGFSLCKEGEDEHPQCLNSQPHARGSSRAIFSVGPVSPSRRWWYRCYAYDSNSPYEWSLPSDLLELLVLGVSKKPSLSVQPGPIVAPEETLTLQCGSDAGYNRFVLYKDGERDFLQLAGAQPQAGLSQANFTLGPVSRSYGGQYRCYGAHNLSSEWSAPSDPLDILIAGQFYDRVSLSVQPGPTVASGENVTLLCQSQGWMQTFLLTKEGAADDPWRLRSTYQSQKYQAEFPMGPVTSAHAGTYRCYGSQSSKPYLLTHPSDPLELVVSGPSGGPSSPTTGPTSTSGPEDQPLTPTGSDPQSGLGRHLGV

[8] = molecular target: T5, His-tagged human LILRB2 polypeptide (human, UniProt Q8N423 22-460); assay: SPR, antibody on CM5 chip, His-LILRB2 analyte, 1:1 model
T5 construct: SPR analyte; also called His-tagged human LILBR2 polypeptide; not shown: His tag
T5 sequence (Q8N423 22-460 limits assumed): as the sequence (Q8N423 22-460 limits assumed) above
Experimental: Surface plasmon resonance (SPR) was used to examine binding activities of exemplary anti-LILBR2 antibodies disclosed herein. Briefly, the anti-LILBR2 antibody was diluted in a coating buffer to a concentration of 30 μg/ml, loaded onto CM5 chips at 10 μl/min to allow coating of the antibody on the surface of the CM5 chip. […] Binding affinity was measured based on the 1:1 binding model.

LILRB3-His = molecular target: T6, LILRB3-His; assay: ELISA on recombinant His-tagged protein, OD450
T6 construct: also called His-tagged LILRB3; recombinant LILRB3 protein

[9] = molecular target: T3, human LILRB3 expressed on 293T cells; assay: cell ELISA on fixed 293T transfectants, OD490
Experimental: The cells were then immobilized with glutaraldehyde in the presence of 5% defatted milk at room temperature for 2 hours. An anti-LILRB2 antibody (2 μg/ml) was added to each well and incubated at room temperature for 2 hours. An HRP-labelled goat anti-mouse secondary antibody was then added into each well and incubated at room temperature for one hour. An HRP substrate, o-phenylenediamine dihydrochloride (OPD) was then added to each well. The plate was incubated at room temperature for 15 min to allow color development and OD₄₉₀ values were determined.

T1 sequence (Q8N423 22-597): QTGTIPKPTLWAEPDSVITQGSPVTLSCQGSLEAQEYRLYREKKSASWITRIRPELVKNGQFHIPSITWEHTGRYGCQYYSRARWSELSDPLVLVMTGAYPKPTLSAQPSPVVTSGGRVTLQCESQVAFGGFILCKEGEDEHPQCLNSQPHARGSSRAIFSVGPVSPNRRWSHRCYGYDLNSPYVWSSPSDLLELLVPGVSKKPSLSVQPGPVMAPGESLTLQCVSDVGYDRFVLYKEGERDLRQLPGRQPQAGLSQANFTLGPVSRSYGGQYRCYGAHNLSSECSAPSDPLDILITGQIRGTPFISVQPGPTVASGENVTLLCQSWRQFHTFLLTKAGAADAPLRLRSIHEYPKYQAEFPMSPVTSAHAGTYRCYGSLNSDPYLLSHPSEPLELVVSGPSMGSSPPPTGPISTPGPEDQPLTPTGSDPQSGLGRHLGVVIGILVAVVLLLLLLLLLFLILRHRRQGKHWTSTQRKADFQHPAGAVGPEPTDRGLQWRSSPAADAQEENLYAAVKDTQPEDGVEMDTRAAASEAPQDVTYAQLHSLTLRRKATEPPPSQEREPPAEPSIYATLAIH

B1: Antibody h#2C1 (antibody, V domains shown)
VH: EVQLVESGGGLVQPGGSLRLSCAVSGYSITSGYYWNWVRQAPGKGLEWVAYISYDGNNNYNPSLKNRFTISRDTSKNTFYLQMNSLRAEDTAVYYCAREESTMITTAWFAYWGQGTLVTVSS
VL: DIQMTQSPSSLSASVGDRVTITCRASENIYSNLAWYQQKPGKAPKLLIYGATNLASGVPSRFSGSGSGTDYTLTISSLQPEDFATYYCQHFWDTPYTFGQGTKVEIK
notes: Humanized variant of 11B12
Bmax [1]: 684000 RFU | Kd [1]: 394 pM | IC50 [2]: 560 pM | Span [2]: 6960 RFU

B2: Antibody h#2D1 (antibody, V domains shown)
VH: EVQLVESGGGLVQPGGSLRLSCAVSGYSITSGYYWNWVRQAPGKGLEWVAYISYDGNNNYNPSLKNRFTISRDTSKNTVYLQMNSLRAEDTAVYYCVREESTMITTAWFAYWGQGTLVTVSS
VL: DIQMTQSPSSLSASVGDRVTITCRASENIYSNLAWYQQKPGKAPKLLIYGATNLASGVPSRFSGSGSGTDYTLTISSLQPEDFATYYCQHFWDTPYTFGQGTKVEIK
notes: Humanized variant of 11B12
Bmax [3]: 565000 RFU | Kd [3]: 412 pM | IC50 [2]: 613 pM | Span [2]: 6830 RFU

B3: Antibody h#2D4 (antibody, V domains shown)
VH: EVQLVESGGGLVQPGGSLRLSCAVSGYSITSGYYWNWVRQAPGKGLEWVAYISYDGNNNYNPSLKNRFTISRDTSKNTFYLQMNSLRAEDTAVYYCVREESTMITTAWFAYWGQGTLVTVSS
VL: DIQMTQSPSSLSASVGDRVTITCRASENIYSNLAWYQQKPGKAPKLLIYGATNLASGVPSRFSGSGSGTDYTLTISSLQPEDFATYYCQHFWDTPYTFGQGTKVEIK
notes: Humanized variant of 11B12
Bmax [3]: 563000 RFU | Kd [3]: 386 pM | IC50 [2]: 429 pM | Span [2]: 7190 RFU

B4: Antibody h#2G6 (antibody, V domains shown)
VH: EVQLVESGGGLVQPGGSLRLSCAVSGYSITSGYYWNWVRQAPGKGLEWVAYISYDGNNNYNPSLKNRFTISRDASKNTFYLQMNSLRAEDTAVYYCAREESTMITTAWFAYWGQGTLVTVSS
VL: DIQMTQSPSSLSASVGDRVTITCRASENIYSNLAWYQQKPGKAPKLLIYGATNLASGVPSRFSGSGSGTDYTLTISSLQPEDFATYYCQHFWDTPYTFGQGTKVEIK
notes: Humanized variant of 11B12
Bmax [3]: 582000 RFU | Kd [3]: 292 pM | IC50 [2]: 391 pM | Span [2]: 7660 RFU

B5: h#2G3 (antibody, V domains shown)
VH: EVQLVESGGGLVQPGGSLRLSCAVSGYSITSGYYWNWIRQAPGKGLEWVAYISYDGNNNYNPSLKNRFTISRDTSKNTVYLQMNSLRAEDTAVYYCAREESTMITTAWFAYWGQGTLVTVSS
VL: DIQLTQSPSSLSASVGDRVTITCRASENIYSNLAWYQQKPGKAPKLLIYGATNLASGVPSRFSGSGSGTDYTLTISSLQPEDFATYYCQHFWDTPYTFGQGTKVEIK
notes: also called Antibody h#2G3
Bmax [1]: 683000 RFU | Kd [1]: 536 pM

B6: chimeric 11B12 (antibody, V domains shown)
VH: DVQLQESGPGLVKPSQSLSLTCSVTGYSITSGYYWNWIRQFPGNKLEWMGYISYDGNNNYNPSLKNRISITRDTSKNQFFLKLNSVTTEDTATYYCAREESTMITTAWFAYWGQGTLVTVSA
VL: DIQMTQSPASLSVSVGETVTITCRASENIYSNLAWYQQKQGKSPQLLVYGATNLADGVPSRFSGSGSGTQYSLKINSLQSEDFGSYFCQHFWDTPYTFGGGTKLEIK
Bmax [4]: 582000 RFU | Kd [4]: 171 pM

B7: Antibody 12D8 (antibody, V domains shown)
VH: QVQLRQSGPGLVQPSQSLSITCTVSGFSLTSYGVHWVRQSPGKGLEWLGVIWSGGITDYNAAFISRLSISKDNSKSQVFFRMNSLQTNDTAIYYCAREIYGNPDYWGQGTTLTVSS
VL: DIVMTQSHKFMSTSVGDRVSITCKASQDVSIAVAWFQQKPGQSPKLLIYSASYRYTGVPDRFSGSGSGTDFTFTISSVQAEDLAVYYCQQHYSTPRTFGGGTKLEIK
notes: Mouse hybridoma mAb purified from ascites
Kd [5]: 4370 pM | binding result [6]: no binding (tested: 5 µg/ml) | binding result [7]: no binding (tested: 5 µg/ml) | binding result (LILRB1-His): no binding | Kd [8]: 227 pM | koff [8]: 0.00014 s⁻¹ | kon [8]: 618000 M⁻¹ s⁻¹

B8: Antibody 3B5 (antibody, V domains shown)
VH: EVQLQQSGPELVKPGASLKISCKASGYTFTDYNMHWVKQSHGKSLEWIGSIYPYNGDTDYNQKFKSKATLTIDNSSSTAFMDLRSLTSEDSAVYYCARENDYDGPPFPYWGLGTLVTVSA
VL: DIQMTQSSSSFSVSLGDRVTITCKASEDIYNRLAWYQQKSGNAPRLLISGATSLETGVPSRFSGSGSGKDYTLSITSLQTEDVATYYCQQYWSIRTFGGGTKLEIK
notes: as for B7
Kd [5]: 2930 pM | binding result [6]: no binding (tested: 5 µg/ml) | binding result [7]: no binding (tested: 5 µg/ml) | binding result (LILRB1-His): no binding | binding result (LILRB3-His): no binding

B9: Antibody 14C11 (antibody, V domains shown)
VH: EVQLQQSGPDLVKPGASVKISCKASGYIFTDFNMHWVKQSHGKSLEWIGYIYPFNGGTGYNQKFENKATLTVDNSSSTAYMEVRSLTSEDSAVYYCARRGGRGHFDYWGQGTTLTVSS
VL: DIQMTQSPASLSASVGETVTVTCRASGNIHNYLAWYQQKQGKSPQLLVYNAKTLADGVPSRFSGSGSGTQFSLKINSLQPEDFGSYYCQHFWNTPFTFGSGTKLEIK
notes: as for B7
Kd [5]: 804 pM | binding result [6]: no binding (tested: 5 µg/ml) | binding result [7]: no binding (tested: 5 µg/ml) | binding result (LILRB3-His): no binding | Kd [8]: 962 pM | koff [8]: 0.00025 s⁻¹ | kon [8]: 260000 M⁻¹ s⁻¹

B10: Antibody 10B11 (antibody, V domains shown)
VH: EIQLQQSGPELVKPGASVKVSCKASGNSFTDNNIYWVKQSHGESLEWIGYIDPFNGRTTYNQKFKGKATLTVDKSSSTAFMHLNSLTSGDSAVYYCARGDYFNYWGQGTTLTVSS
VL: EIQMTQTTSSLSASLGDRVTISCSASQGINNYLNWFQQKSDGTVKLLIYYTSSLHSGVPSRFSGSGSGTDYSLTISNLEPEDIAIYYCQQYSNLPFTFGGGTELEIK
notes: as for B7
Kd [5]: 195 pM | binding result [9]: no binding (tested: 2 µg/ml) | binding result (LILRB3-His): no binding

B11: Antibody 11D9 (antibody, V domains shown)
VH: EIQLQQSGPELVKPGASVKLSCKASGYAFTTYNMYWVKQSPGKSLEWIGYIDPYNGGATYNLKFKGKATLTVDKSSSAAYMHLNGLTSEDSAVYYCAGGDYFNYWGQGTILTVSS
VL: DIQMTQTTSSLSASLGDRVTISCRASQVINNYLNWFQQKPDGTVKLLIYYTSTLHSGVPSRFSGSGSGTDYSLTISNLEPEDFATYYCQQYSTLPYTFGGGTKLEIK
notes: as for B7
Kd [5]: 1430 pM | binding result [9]: no binding (tested: 2 µg/ml) | binding result (LILRB3-His): no binding

B12: Antibody 4A9 (antibody, V domains shown)
VH: EIQLQQSGPELVKPGASVKVSCKASGSSFTDYNMYWVKQIHGKSLDWIGYIDPYNGRTTYNQKFKGKATLTVDKSSSTAFMHLNSLTSEDSAVYYCAGGDYFDYWGHGTSLTVSS
VL: EIQMTQTTSSLSASLGDRVTISCSASQGISNYLNWFQQKPDGTVKLLIYYTSTLHSGVPSRFSGSGSGTDFSLTISNLDPEDFATYYCQQYSNLPYTFGGGTKLEIK
notes: as for B7
Kd [5]: 216 pM | binding result [9]: no binding (tested: 2 µg/ml) | binding result (LILRB3-His): no binding
